Laboratory results reported in patent US20140274782A1, “AFFINITY REAGENTS AND METHODS FOR DETECTION, PURIFICATION, AND PROTEOMIC ANALYSIS OF METHYLATED PROTEINS” (The Board of Trustees of the Leland Stanford Junior …, priority 2013, published 2014).

T1: G9a and GLP (Homo sapiens, UniProt Q96KQ7+Q9H9B1)
T1 sequence (Q96KQ7 2-1210 limits assumed): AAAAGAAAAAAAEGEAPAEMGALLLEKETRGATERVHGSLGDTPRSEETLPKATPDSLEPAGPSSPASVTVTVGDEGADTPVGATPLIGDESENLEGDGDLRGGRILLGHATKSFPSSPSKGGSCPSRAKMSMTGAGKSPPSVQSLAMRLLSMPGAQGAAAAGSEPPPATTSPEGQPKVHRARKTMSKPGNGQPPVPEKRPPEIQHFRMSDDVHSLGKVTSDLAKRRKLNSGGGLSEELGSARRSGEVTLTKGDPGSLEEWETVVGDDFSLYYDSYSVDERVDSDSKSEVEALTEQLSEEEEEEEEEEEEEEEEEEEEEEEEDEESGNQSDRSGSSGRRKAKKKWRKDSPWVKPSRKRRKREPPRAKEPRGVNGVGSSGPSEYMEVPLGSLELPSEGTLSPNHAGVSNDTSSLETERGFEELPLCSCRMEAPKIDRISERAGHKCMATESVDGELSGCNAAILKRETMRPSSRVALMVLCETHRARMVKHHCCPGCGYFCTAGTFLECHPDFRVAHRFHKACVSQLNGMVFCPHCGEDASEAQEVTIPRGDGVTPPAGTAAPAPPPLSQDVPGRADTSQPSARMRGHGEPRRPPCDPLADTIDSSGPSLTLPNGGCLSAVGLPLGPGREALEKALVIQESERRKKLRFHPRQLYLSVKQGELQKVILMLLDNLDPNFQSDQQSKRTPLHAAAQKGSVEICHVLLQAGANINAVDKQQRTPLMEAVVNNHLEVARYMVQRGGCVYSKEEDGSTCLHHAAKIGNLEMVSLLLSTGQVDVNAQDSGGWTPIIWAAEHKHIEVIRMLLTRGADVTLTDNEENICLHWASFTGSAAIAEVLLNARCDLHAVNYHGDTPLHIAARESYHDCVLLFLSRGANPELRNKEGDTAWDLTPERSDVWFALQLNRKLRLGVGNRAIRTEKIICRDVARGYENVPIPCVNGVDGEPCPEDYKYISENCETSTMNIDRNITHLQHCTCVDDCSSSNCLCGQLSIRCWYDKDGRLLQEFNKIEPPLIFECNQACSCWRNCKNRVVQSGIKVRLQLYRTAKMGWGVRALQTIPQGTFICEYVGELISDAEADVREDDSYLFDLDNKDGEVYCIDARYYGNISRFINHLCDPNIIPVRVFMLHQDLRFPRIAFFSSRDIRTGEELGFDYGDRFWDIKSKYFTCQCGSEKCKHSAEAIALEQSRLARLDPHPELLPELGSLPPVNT
T1 sequence (Q9H9B1 2-1298 limits assumed): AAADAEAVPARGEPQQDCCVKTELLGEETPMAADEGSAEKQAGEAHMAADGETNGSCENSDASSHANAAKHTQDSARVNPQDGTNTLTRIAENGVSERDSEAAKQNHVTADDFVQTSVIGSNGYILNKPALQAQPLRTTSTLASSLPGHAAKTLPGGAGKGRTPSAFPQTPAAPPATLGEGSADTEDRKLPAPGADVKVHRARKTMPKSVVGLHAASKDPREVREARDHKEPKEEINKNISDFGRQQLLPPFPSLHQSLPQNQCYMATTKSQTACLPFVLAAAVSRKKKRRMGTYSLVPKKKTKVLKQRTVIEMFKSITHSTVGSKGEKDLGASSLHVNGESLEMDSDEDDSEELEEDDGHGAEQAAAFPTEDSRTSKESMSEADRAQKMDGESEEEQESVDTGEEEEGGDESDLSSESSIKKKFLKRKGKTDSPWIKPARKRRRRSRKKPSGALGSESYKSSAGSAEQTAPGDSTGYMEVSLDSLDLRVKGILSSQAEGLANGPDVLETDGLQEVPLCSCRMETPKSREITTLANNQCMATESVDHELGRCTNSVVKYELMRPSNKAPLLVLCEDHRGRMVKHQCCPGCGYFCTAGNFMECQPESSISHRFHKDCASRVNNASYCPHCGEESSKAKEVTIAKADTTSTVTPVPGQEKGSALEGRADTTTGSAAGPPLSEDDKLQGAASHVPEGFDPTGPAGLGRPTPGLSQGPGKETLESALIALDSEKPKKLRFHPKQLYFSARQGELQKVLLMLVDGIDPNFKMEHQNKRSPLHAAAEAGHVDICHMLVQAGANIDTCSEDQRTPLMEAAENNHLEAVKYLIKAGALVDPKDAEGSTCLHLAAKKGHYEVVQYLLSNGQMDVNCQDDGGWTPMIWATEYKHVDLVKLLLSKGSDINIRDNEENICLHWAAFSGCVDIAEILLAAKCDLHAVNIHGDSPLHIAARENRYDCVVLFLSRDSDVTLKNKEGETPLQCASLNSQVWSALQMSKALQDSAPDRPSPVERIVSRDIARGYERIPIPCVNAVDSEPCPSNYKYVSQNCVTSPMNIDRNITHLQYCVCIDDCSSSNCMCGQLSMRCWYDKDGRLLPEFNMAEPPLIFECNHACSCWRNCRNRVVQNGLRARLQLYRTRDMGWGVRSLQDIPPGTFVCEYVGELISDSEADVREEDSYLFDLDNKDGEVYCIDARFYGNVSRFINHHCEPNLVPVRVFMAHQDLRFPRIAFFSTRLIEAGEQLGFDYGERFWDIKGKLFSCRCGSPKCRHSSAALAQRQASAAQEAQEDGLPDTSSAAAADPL

B1: UBAP2L (protein, UniProt Q14157 1-1087, looked up)
Ubiquitin-associated protein …: MMTSVGTNRARGNWEQPQNQNQTQHKQRPQATAEQIRLAQMISDHNDADFEEKVKQLIDITGKNQDECVIALHDCNGDVNRAINVLLEGNPDTHSWEMVGKKKGVSGQKDGGQTESNEEGKENRDRDRDYSRRRGGPPRRGRGASRGREFRGQENGLDGTKSGGPSGRGTERGRRGRGRGRGGSGRRGGRFSAQGMGTFNPADYAEPANTDDNYGNSSGNTWNNTGHFEPDDGTSAWRTATEEWGTEDWNEDLSETKIFTASNVSSVPLPAENVTITAGQRIDLAVLLGKTPSTMENDSSNLDPSQAPSLAQPLVFSNSKQTAISQPASGNTFSHHSMVSMLGKGFGDVGEAKGGSTTGSQFLEQFKTAQALAQLAAQHSQSGSTTTSSWDMGSTTQSPSLVQYDLKNPSDSAVHSPFTKRQAFTPSSTMMEVFLQEKSPAVATSTAAPPPPSSPLPSKSTSAPQMSPGSSDNQSSSPQPAQQKLKQQKKKASLTSKIPALAVEMPGSADISGLNLQFGALQFGSEPVLSDYESTPTTSASSSQAPSSLYTSTASESSSTISSNQSQESGYQSGPIQSTTYTSQNNAQGPLYEQRSTQTRRYPSSISSSPQKDLTQAKNGFSSVQATQLQTTQSVEGATGSAVKSDSPSTSSIPPLNETVSAASLLTTTNQHSSSLGGLSHSEEIPNTTTTQHSSTLSTQQNTLSSSTSSGRTSTSTLLHTSVESEANLHSSSSTFSTTSSTVSAPPPVVSVSSSLNSGSSLGLSLGSNSTVTASTRSSVATTSGKAPPNLPPGVPPLLPNPYIMAPGLLHAYPPQVYGYDDLQMLQTRFPLDYYSIPFPTPTTPLTGRDGSLASNPYSGDLTKFGRGDASSPAPATTLAQPQQNQTQTHHTTQQTFLNPALPPGYSYTSLPYYTGVPGLPSTFQYGPAVFPVAPTSSKQHGVNVSVNASATPFQQPSGYGSHGYNTGVSVTSSNTGVPDISGSVYSKTQQSFEKQGFHSGTPAASFNLPSALGSGGPINPATAAAYPPAPFMHILTPHQQPHSQILHHHLQQDGQTGSGQRSQTSSIPQKPQTNKSAYNSYSWGAN
B2: UBTF (protein, UniProt P17480 1-764, looked up)
Nucleolar transcription …: MNGEADCPTDLEMAAPKGQDRWSQEDMLTLLECMKNNLPSNDSSKFKTTESHMDWEKVAFKDFSGDMCKLKWVEISNEVRKFRTLTELILDAQEHVKNPYKGKKLKKHPDFPKKPLTPYFRFFMEKRAKYAKLHPEMSNLDLTKILSKKYKELPEKKKMKYIQDFQREKQEFERNLARFREDHPDLIQNAKKSDIPEKPKTPQQLWYTHEKKVYLKVRPDATTKEVKDSLGKQWSQLSDKKRLKWIHKALEQRKEYEEIMRDYIQKHPELNISEEGITKSTLTKAERQLKDKFDGRPTKPPPNSYSLYCAELMANMKDVPSTERMVLCSQQWKLLSQKEKDAYHKKCDQKKKDYEVELLRFLESLPEEEQQRVLGEEKMLNINKKQATSPASKKPAQEGGKGGSEKPKRPVSAMFIFSEEKRRQLQEERPELSESELTRLLARMWNDLSEKKKAKYKAREAALKAQSERKPGGEREERGKLPESPKRAEEIWQQSVIGDYLARFKNDRVKALKAMEMTWNNMEKKEKLMWIKKAAEDQKRYERELSEMRAPPAATNSSKKMKFQGEPKKPPMNGYQKFSQELLSNGELNHLPLKERMVEIGSRWQRISQSQKEHYKKLAEEQQKQYKVHLDLWVKSLSPQDRAAYKEYISNKRKSMTKLRGPNPKSSRTTLQSKSESEEDDEEDEDDEDEDEEEEDDENGDSSEDGGDSSESSSEDESEDGDENEEDDEDEDDDEDDDEDEDNESEGSSSSSSSSGDSSDSDSN
B3: HPRT1 (protein, UniProt P00492 2-218, looked up)
Hypoxanthine-guanine …: ATRSPGVVISDDEPGYDLDLFCIPNHYAEDLERVFIPHGLIMDRTERLARDVMKEMGGHHIVALCVLKGGYKFFADLLDYIKALNRNSDRSIPMTVDFIRLKSYCNDQSTGDIKVIGGDDLSTLTGKNVLIVEDIIDTGKTMQTLLSLVRQYNPKMVKVASLLVKRTPRSVGYKPDFVGFEIPDKFVVGYALDYNEYFRDLNHVCVISETGKAKYKA
B4: DEK (protein, UniProt P35659 2-375, looked up)
Protein DEK: SASAPAAEGEGTPTQPASEKEPEMPGPREESEEEEDEDDEEEEEEEKEKSLIVEGKREKKKVERLTMQVSSLQREPFTIAQGKGQKLCEIERIHFFLSKKKTDELRNLHKLLYNRPGTVSSLKKNVGQFSGFPFEKGSVQYKKKEEMLKKFRNAMLKSICEVLDLERSGVNSELVKRILNFLMHPKPSGKPLPKSKKTCSKGSKKERNSSGMARKAKRTKCPEILSDESSSDEDEKKNKEESSDDEDKESEEEPPKKTAKREKPKQKATSKSKKSVKSANVKKADSSTTKKNQNSSKKESESEDSSDDEPLIKKLKKPPTDEELKETIKKLLASANLEEVTMKQICKKVYENYPTYDLTERKDFIKTTVKELIS

Experiments:
G9a and GLP = biological target: T1, G9a and GLP; assay: Triple SILAC pull-down after UNC0638 treatment of 293T cells, DMSO/UNC0638 ratio of protein captured by 3×MBT; assay type: cell-based; design: endogenous in cells; host or cells: HEK 293T; details: all values in log base 2; for Relative to UNC0638 UNC Heavy / Relative to UNC0638 UNC Light: SILAC ratio DMSO relative to UNC0638, pull-down with 3xMBT; for Relative to UNC0638 UNC Heavy: UNC0638 in heavy SILAC media; for Relative to UNC0638 UNC Light: UNC0638 in light SILAC media; for Relative to UNC0638 Average: average of UNC Light and UNC Heavy experiments;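 for all read-outs here: mass spectrometry (Q-Exactive) SILAC quantitation, DMSO/UNC0638 ratio computed after subtracting 3×MBTD355N mutant pull-down background, only proteins with at least twofold 3×MBT over mutant signal considered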
3×MBT domain of L3MBTL1 = assay: Triple SILAC pull-down, 3xMBT/3xMBTD355N ratio (cytoplasmic, nuclear and chromatin fractions of 293T cells); assay type: binding, human; details: SILAC ratio 3xMBT vs 3xMBTD355N pull-down, 293T cells, all values in log base 2; for 3xMBT/D355N UNC Heavy: experiment with UNC0638 in heavy SILAC media; for 3xMBT/D355N UNC Light: experiment with UNC0638 in light SILAC media;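 for all read-outs here: proteins quantified with MaxQuant, requiring at least two unique peptides and quantification in both label directions, normalized to the mean of proteins from a digested loading control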

Row | Molecule | Relative to UNC0638 UNC Heavy (G9a and GLP) [log base 2] | Relative to UNC0638 UNC Light (G9a and GLP) [log base 2] | Relative to UNC0638 Average (G9a and GLP) [log base 2] | 3xMBT/D355N UNC Heavy (3×MBT domain of L3MBTL1) [log base 2] | 3xMBT/D355N UNC Light (3×MBT domain of L3MBTL1) [log base 2]
1 | B1 | 0.22 | −0.06 | 0.08 | 2.82 | 1.83
2 | B2 | 0.49 | −0.29 | 0.10 | 2.47 | 1.93
3 | B3 | 0.28 | −0.08 | 0.10 | 2.51 | 1.19
4 | B4 | 0.10 | 0.10 | 0.10 | 2.38 | 2.01
